In article PMC7036032:

Biological target: cleavage stimulation factor (CstF): CstF77-CstF50-CstF64(1-195) (human) (UniProt Q12996)
Assay: SEC

stoichiometry N: 1
Substance: mammalian polyadenylation specificity factor (mPSF): CPSF160-WDR33(1-572)-CPSF30-Fip1(1-243), Q10570 1-1443; Q9C0J8 1-572; O95639-2 1-244; Q6UN15 1-243
